# Assay results reported in the domain aggregation screens of Martell et al. (2025).
# Test: soluble fraction after stress (log2 fold change); higher = more stays soluble; pooled small domains, quantitative proteomics
# Details: stress: 50 degC
# Summary of the method: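 The measure of aggregation propensity here is the base-two logarithm of the fold change in the soluble amount of each protein after stress. A higher value means more of that protein stays in solution. Stress was applied at 50°C to pooled libraries of small protein domains, read out by high-throughput quantitative proteomics.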
row,Sequence,soluble fraction (log2)
1,HMVYFDDEELDRFAGRAADSYTSDETDEFRDVMLTLLPADVMPWTQSIEMRGILLPEQLRDELLML,-0.764
2,HMTNQEFNEVFKLLLAAYPNTKDKESVATIYFLTIANELTKKEFAEAVVKILKTRKSGFIPQPAEILEVAK,-0.67
3,HMIHANGLTDRQEMILEFIRSYISENNYPPSVREIGKGVGLASSASVHNNMKKLASLGFLNWDTD,-1.25
4,HMTTTSGLIKTIQTGRRKLGMDDETYRALLADVSGGKTSSKDLNAYQLKEVLRRMREAGFRS,0.218
5,HMQTTDTGAIETIVDELMAANPDKVEAYRGGKTGLQGFFMGQVMKQLGGQGNPKVISAIVTEKLE,≥ 0.62
6,HMLIELKIPSEWAGKSLHTLNLRQNYNVNVIGFRDEKSGKLNTHFDPSKKLPDEGIILVVADNRTLEKF,-0.837
7,HMGISVEVPDLKNMSVAEAGSLLKNSGLSYAVVDSDYVKTISPGKILDQNPGRGLRVKKGRIVYLTINSL,-1.37
8,HMKPPTIELSYSEFIELVERGKVSKVIFSSDNYTLKGETVNGENFETVRPPFLEDNLSEILTIHKVPVSSE,-0.208
9,HMDFMNSEIKKIVEDLKLTLQSLNYTKNEIKSILPVINKETDNLIKKEKYASFENLLRLAMNHLDNN,-0.462
10,HMVSGVMAQQAIAVLVQQEDKHAPLSDQALAERLQVQGIDISRRTVAKYRQLLQIPSAATRR,-0.419
11,HMREVVLNRIGSVAVQRATTRTWEEWVVTLDAEGMRGKEHRDVVGHLLRAHELTSWWAQMVSVGYEQSRGQ,-0.166
12,HMSKKIVLPAAITVKKFSETLDMPLGTVISELMKNGILATINERIDFETASIIAQDLGYEVSEEV,0.173
13,HMDARSTHIAAIHVLKSKLQLQDSDYRALLLTLTGQTSSKDLSEHQRRAVRNHMQQLAERMGVVQ,-0.533
14,HMTPATVVIPKVAGQTVAEAKETLKNANFEIGEEKDESSDTVEEGRVIRTDPESGTNRKEGTKINLIVSS,-0.0325
15,HMRADRLISMLMLLQARGKITAEELAVELGVSQRTIYRDIEALSFAGVPVYAERGPGGGIGLLEPY,-1.7
16,HMENIDVGQDYKVTMNTIQNLMKTGLVTGTQYKELLREMGVHSGMGAITAQQHQIALDFLNKTMDSA,0.285
17,HMTLREQISALIKQGKLTQAKLARETGVNGGALSAWINGKYTGNVETVEEPIKHWMALNERK,0.373
18,HMSNRDNPVVLDFKKVKSTEQLDNILEEYIRENFEGYTVKGRMFSSDEGKFIIALALKDDDGKRALVYFDV,-0.635
19,HMAVWRIKVNYIPGYGVNIWSSYKNGHFTGKRAMHGETYEVLETKKDQDGNTWYKLDDHQWIEGRYAINAK,-0.466
20,HMTNKYSSLVIGTVKTIMEEDQYKNLMGPPLKKEIIKQVDKFTNALPIEFDQNDKDFYVKKILINL,-0.304
21,HMRPYAYGTGRRKSSTARVHLIPNGSGSITINGRTLDEYFGLETLKLIVRQPLAATETAEKFDVEATVV,-0.415
22,HMRGIPEEVADVAIQWVARLDSNEISDADRAAFFAWLDASPINRWAYNDISESWAKLSILNEMGH,-1.6
23,HMSRYLLPYAFARTQQVLLEEKSGELTLWMHSGSNLGGISEVTRKYAVQHVTHEPMDALLNRISSAYAN,-3.41
24,HMIEEIAVPEILGMQEEEAKAKIEGLGLVFNVTDRVKSNEYEKGEVMYQSVGPDDTTVKSGYPINVTISEG,-0.0543
25,HMDSILMPGVVNKELREALAILKNEGIGWADPEYASSTVTRNYVISTDPVEGIELAPGQKVRLVVSLGPKP,-0.00706

row,Sequence,soluble fraction (log2)
1,HMKNDNIHMMASKINGIALEVGVLTPGMHPKNDLSEGEVGYIVTNLKTTREAKVGDTVTLAKKPAATPLPG,0.254
2,HMNEPMITEVKRINYGSIKEIAKNLDVFKGKNGTVIIDERTNTLILTDLSENIEKMLWSIEITD,-0.896
3,HMLETILQIGKDGVGENLVKQVNDALEARELIKGRVLDNNLELDARTAAQILAKATRSEVVQVIGTKFV,-0.0922
4,HMEGGLIMDRIEKGLQSGVMPDLRGLNLKDALYLLESYVQVQVIGSGGVIKQSIKTGDKFIMGSVIKLEL,-0.0813
5,HMPIKYTHKGYTINVSRSKMNGTTFVKVVDPKGQVIQQSQDNRIQDVNQLVTTMKQYIDTLKPS,0.189
6,HMIGVQEFAMTYALTRRETEITQLIIQGKSNAMIAGELFISETTVKKHVSNIFEKTGVSRREELMVRVQAE,-1.44
7,HMGLWWTEAERELVKTTIEQLYKDTNIAEPVDSKNLRASIPALKAMRTGLSAENQARVDTLLGALQV,-0.157
8,HMSAPVFRITPAGVVVNGLKRSDILTLTRIDGAMNTLPHNAGEVLVSTEGLAKGVYVITAGGKSLKFLV,-1.36
9,HMFEKVKLTLTIPSKYSGSTYSALRNRMNKFSKEEWLSNGDLKIEIEVTGGQKTDIYTLINKLTNGEAIIE,-0.141
10,HMGQDLEAFLLKAVGQLDQGDGVTLDALLKVAVSNGGFVREVAEAKLDDMLDAGTLDEPRFGWFRVGAT,-0.742
11,HMSNEYLMPNLIGMSWDEAKSKYSQYMTLVPEQEWSEVTKDQIFDQEYPEGRKVKIGTEVTVKVSMGI,-0.192
12,HMRGFTDFEHIEKEYLATIEKLNWPDGVTLPDKLEGEDTGTSFQVGYGDTRASNLWEYSWMK,-0.0186
13,HMKRITAVISQKKGRDYYYIIVSYYLSNGKRVQRWIKTEFPINGNNKRKLEQKRIEVLQEWQDKLV,-1.3
14,HMFYWTDLIGLDVINTADERLGKVVGLIETGANAVLRVMGDDQVERLLPFGSAVVLTVEKEAGQIRVEW,-0.89
15,HMNDGEIAAPVSGTLQSFKVEDGQTVSEGDLVAVMEAMKMETQILATKGGTIRLLVKEGDYLQAGHALMTI,-0.525
16,HMSDRFLDQEGVALSTLRPSGTVVLDSGEHLDVVTRGEFIEQGERVKVIKAESTWYVVEQIN,-0.268
17,HMNMVSGHLQIKKGYYYVVLSYYDNRNKRHVKYVSTGLPEKGNKRKAEAALARVRSEFEPPQE,-3.55
18,HMDLEELSNKMNNVFESLSSDLRDIIIMSDIEGLSYEEISHKINIPIGTVRSRLHRARDLMVRVIKEN,-0.513
19,HMSSDKVWSFEASGKQLQASYVAFENETVYLRASEDGSLLQFPLTDFGMKDQLVVLELYELSAKINRSN,-0.49
20,HMTSNIIIVPNVVGMTKEQATAALAAAGLNIKLSGVETTDTAAVAVKQKPSANTKVEEGSVVTVEFDLK,0.0533
21,HMAPDAPDGFVHRWIRAEMLGQEDKSNVHRRMQEGYELVRADEYPDSDLPVAEGRYAGIIGVGGLLLARF,-0.14
22,HMQILPAFLPENPELRARLANHSLEELTEILKQYKTLHNSTDVDTVKRAIRAIEIEEYYAVHPV,-0.777
23,HMKEMTAKQIDMFSDKLSKLESFQSHYIADAGVSVTEYKQAIAAKLQDQFYVEAWGKYLADVGFT,-0.505
24,HMAPRASDALTERELDVLRVVADGASVAEAAEMLVVSRETVKKHLGNIYAKLGVHSKMQAVALLREEGV,-0.147
25,HMGTTKGVVDVTVPNGRASQHVKLVVIDDDGGRVVYDGTNAPGDRIVKSVSGSGNVRVQIYLNNALVQEQS,-0.2

row,Sequence,soluble fraction (log2)
1,HMYSVVGKKGIVIEDINYSTGTGQIKSEGEVWSAKTNEQINIPKGTEIEIESIDGVKVIVKPL,0.0184
2,HMGDEPGAGYKWREDVLLRVMSEHGIDESARDDFVRHAVKFDDDDNLYLKKAEIIAAAEAWESSS,0.17
3,HMNKEVDLPNFVGMTKENAQAQADKIKIKLEFEEEYSSDVEEGKIISQNPEYKENYKIKEKSTVSLKI,0.118
4,HMKMPNGYGSITKLSGKRRKPWRVRKTAGWELDAKTQKLKQTYINIGYYETRADAMSALVSYNEDP,-0.898
5,HMTNTDALINRAAKVVEEINPDKNTGRVSIDGDLWRAKSSSGELIEQNKQVIVISIESTIVTVKI,-0.343
6,HMLTAHEAILKELRKMLLTGVLSPGEAVRPEIIGESFGVSAVPVREALRILEGEGQVLNRPHKGYVVT,-0.568
7,HMKMHKIIKERRLALNFTQEQVAKYLGVTTPAVNKWEKGISYPDISLLPALARLLDTDLNTLLSF,-2.1
8,HMDFTPDQIARLDDIISRYKDKPGGLIPVLEEAQVALEYLPIGVQKRIAKGLNLPLSRVYGVVTFYSFFTM,-0.0911
9,HMTKIDYSINQIYSLRNIENITIVLKDKRSFTGKILKIYWQNGSKIILFTTETRNYKFKEYEISEIYKS,-0.268
10,HMGGKWKAIIIYHLKNGPKRFGELRRALISSTETVLSNQLKQLEQDGLVSRQVFGTKPPLKTVYSLTDFG,-3.06
11,HMETLKEVPNLKGQQQEVAKQLLINAGLGVGKINIIEDSTIADGEVVTQSILPNTKVKKDTYVGFTVNKAP,0.0969
12,HMETQAGELQDAIRDAIAALPPRTREVFLMSRERNLRYGEIAEALGISVKAVEANMSRALRQLREKLSPFL,-0.454
13,HMHDRRSGKVKWYSDRKGYGFIDLDGGEVFIHRSALIAFGALRLQAEDIITITVRETDRGLVVDQLFGIER,-2.03
14,HMGDVPESLVEKAGHSINAKIISAWGMTETGASTMTRPQDDPERAIYSDGVVLPLMDVRVVNDAGLA,0.0119
15,HMAASGTVNSGGDPLRVRADPNTSSQILTKLSDGTQVEVLEQAENGWYKIAHEGISGFVSGEYLVVH,0.133
16,HMESNWLTYAKRIQSIADTGMTFAVDDFDKERYQELADISSKMLADLSNIPIGRIENLLGPLGQ,-0.75
17,HMNIAEIGQKVAQQRVALGISQERLAKLSDLSRSTIHHLEHGTLHEIGAAKLFKLLSLLDIQLK,-0.761
18,HMTPQDYEYLRKLLKDQSGLDLSVDKQYLLESRLVPLSRKAGLAGIPELVQKMKAGSASLTAQVVEAMTT,0.00429
19,HMEIPTPAELREKRIRMGLKQADVARMAGISQSMVARIESGSVDPRVSTLAKIVEVLQAAER,-0.175
20,HMEDVTLSLVVGEDLDGERLDVFLTWKLDRTRSQVQALIRDGKVRLEQGQRARPSMVVRSGMGISVSLEPR,-1.49
21,HMAEPYDEDKVMEHLYIKGKDVVIAHLKHLKEHNEHVWLKKGVEWMQKNQDRLGFDMMEVIYVVHNH,-0.0166
22,HMGLVQQSAQKSDDAAKLMAANNLNAAQSKYQLPDEAEKDFFTFAFERGYAVEDFVDAGLVDKIMADFSA,-0.078
23,HMRNMTDYLTIVRAVYGGLSQRQAATTYHVSRNTVSLLIRHAKNQGWLTVEDLSRADAAAFSPA,-0.517
24,HMTSPRRLYALIVEHVGKDGVMHRSDVENVLAKVESEMDVDDLLDQLEINGTIIRRQDGTWQLL,-0.197
25,HMPTTRPEAEAHYETHQRYHDLQIDVEGREAFKVATGSLTLVQEFDEKDDYDLSIPTPRSPAILLTT,0.0218
